Data on 2 molecules can be found in article PMC3861454, “Structures of Wnt-Antagonist ZNRF3 and Its Complex with R-Spondin 1 and Implications for Signaling” (PLoS ONE, 2013).

Test [1] addresses RNF43 (Homo sapiens) (UniProt Q68DV7). Description: ITC. Conditions: cited from earlier work.
Test [2] has the same target. The test is described as follows: ITC. Conditions: cited from earlier work. This is another data set of the same source.
Test [3] addresses T1, ZNRF3 ectodomain with C-terminal biotin acceptor peptide (C-BAP) tag, biotinylated in vivo (mouse, UniProt Q5SSZ7 53-216, biotin on the biotin acceptor peptide tag (in-vivo biotinylation by BirA)).
T1 construct: ZNRF3 ectodomain; also called Biotinylated ZNRF3; source: HEK293-E cells, co-expressed with biotin ligase (BirA); not shown: biotin acceptor peptide (BAP), C-terminal, kept
T1 sequence (looked up): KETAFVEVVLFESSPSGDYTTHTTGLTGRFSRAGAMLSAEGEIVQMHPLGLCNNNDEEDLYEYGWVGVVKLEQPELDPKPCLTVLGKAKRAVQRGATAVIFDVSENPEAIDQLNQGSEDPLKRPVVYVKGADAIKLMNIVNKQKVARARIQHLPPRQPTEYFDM
The test is described as follows: SPR; IBIS MX96; biotinylated ZNRF3 immobilised on a G-streptavidin sensor chip at different ligand densities; analytes flowed in 25 mM HEPES pH 8.0, 150 mM NaCl, 25 °C; equilibrium dose-response, global fit to a 1:1 binding model. Conditions: both partners purified. A general note: Surface plasmon resonance follows binding to a sensor surface in real time, without labels.

Sequence of RNF43 (Homo sapiens) (Q68DV7 24-197): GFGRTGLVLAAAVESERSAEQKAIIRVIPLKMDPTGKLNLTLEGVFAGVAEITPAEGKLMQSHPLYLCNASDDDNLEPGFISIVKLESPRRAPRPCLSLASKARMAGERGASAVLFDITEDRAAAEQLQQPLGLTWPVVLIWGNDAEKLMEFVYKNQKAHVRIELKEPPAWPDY

As for RSPO1 (from UniProt Q2MKA7), the dissociation constant Kd is 750 nM with RNF43 (Homo sapiens) [1] and 8.5 µM in the test with RNF43 (Homo sapiens) [2].

B1: R-spondin 1 (RSPO1) furin-like domains Fu1 and Fu2 (domain or fragment)
chain: RISAEGSQACAKGCELCSEVNGCLKCSPKLFILLERNDIRQVGVCLPSCPPGYFDARNPDMNKCIKCKIEHCEACFSHNFCTKCKEGLYLHKGRCYPACPEGSSAANGTMECSSPA
notes: R-spondin 1, fragment consisting of the Fu1 and Fu2 domains; source: HEK 293E (EBNA) cells, purified (Ni-NTA, gel filtration); as described previously [18]
Take B1: the equilibrium dissociation constant (Kd) in test [3] was 1900 nM.

As a reminder, the Kd is the concentration at which binding is half-saturated.
